Source: PMC11157272, “Fructose-1-kinase has pleiotropic roles in Escherichia coli” (The Journal of Biological Chemistry, 2023)

What was measured:
[1] = target: T1, His-tagged Cra (pET3a-Cra-C-His) for biolayer interferometry (E. coli), P0ACP1; assay: BLI; equilibrium BLI (Octet RED96): biotinylated operator DNA on streptavidin tips, dipped into pre-equilibrated 2.5 nM Cra dimer plus varied FruK; 50 mM Hepes, 0.1 M KCl, 0.1 mM EDTA, 10 mM MgCl2, pH 7.0, 0.3 mM DTT, 0.1 mg/mL BSA; room temperature; global fit to Equation 2 with n assumed 1
T1 chain: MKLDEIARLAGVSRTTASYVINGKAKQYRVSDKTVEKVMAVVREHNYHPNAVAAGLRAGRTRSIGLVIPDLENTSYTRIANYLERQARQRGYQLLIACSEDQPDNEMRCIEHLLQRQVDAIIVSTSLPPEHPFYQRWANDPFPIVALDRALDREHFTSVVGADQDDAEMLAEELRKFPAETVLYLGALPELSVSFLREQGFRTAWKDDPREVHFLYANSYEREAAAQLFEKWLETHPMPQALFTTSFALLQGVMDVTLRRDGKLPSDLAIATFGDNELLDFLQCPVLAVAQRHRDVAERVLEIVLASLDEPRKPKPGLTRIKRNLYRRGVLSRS

[2] = target: T2, catabolite repressor activator protein (WT Cra), untagged (E. coli), P0ACP1; assay: as above
T2 chain: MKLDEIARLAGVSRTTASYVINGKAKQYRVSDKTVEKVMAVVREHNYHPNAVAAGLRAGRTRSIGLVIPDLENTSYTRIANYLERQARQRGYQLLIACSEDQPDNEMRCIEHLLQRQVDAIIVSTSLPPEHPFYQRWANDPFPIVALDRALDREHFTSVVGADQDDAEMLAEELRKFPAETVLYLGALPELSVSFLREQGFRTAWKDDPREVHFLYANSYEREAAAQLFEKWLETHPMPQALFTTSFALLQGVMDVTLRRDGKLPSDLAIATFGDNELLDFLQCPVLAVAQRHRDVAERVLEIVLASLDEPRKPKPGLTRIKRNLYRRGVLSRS

[3] = target: T2, catabolite repressor activator protein …; assay: atomic force microscopy; Cra, FruK and 331 bp fruBKA promoter DNA mixed (20 nM Cra/20 nM FruK and 20 nM Cra/10 nM FruK), 50 mM Hepes, 100 mM KCl, 0.1 mM EDTA, 10 mM MgCl2, 0.3 mM DTT, pH 7.0, 60 min at room temperature, deposited on functionalised mica; DNA-bound and DNA-free particles; volumes converted to molecular weights and clustered
[4] = target: fructose-1-kinase (FruK), untagged, expressed from pET-3a and purified (E. coli), P0AEW9; assay: atomic force microscopy; single-protein samples (FruK+DNA, Cra+DNA) in 50 mM Hepes, 100 mM KCl, 0.1 mM EDTA, 10 mM MgCl2, 0.3 mM DTT, pH 7.0, 60 min at room temperature, deposited on functionalised mica; molecular volumes converted to molecular weights
[5] = target: the molecule itself; assay: as above
[6] = target: Cra (FruR), WT (Escherichia coli (gene from strain …, UniProt P0ACP1 1-334)); assay: BLI; 100 nM Cra; BLI: 50 mM Hepes, 100 mM KCl, 0.1 mM EDTA, 10 mM MgCl2, 0.3 mM DTT, 0.1 mg/mL BSA, pH 7.0, about room temperature; concentrations as dimer; conditions: protein: recombinant; tags: none; chain copies: 2; label: biotin

B1: fructose-1-kinase (FruK), untagged, expressed from pET-3a and purified, P0AEW9 1-312 (enzyme)
chain: MSRRVATITLNPAYDLVGFCPEIERGEVNLVKTTGLHAAGKGINVAKVLKDLGIDVTVGGFLGKDNQDGFQQLFSELGIANRFQVVQGRTRINVKLTEKDGEVTDFNFSGFEVTPADWERFVTDSLSWLGQFDMVCVSGSLPSGVSPEAFTDWMTRLRSQCPCIIFDSSREALVAGLKAAPWLVKPNRRELEIWAGRKLPEMKDVIEAAHALREQGIAHVVISLGAEGALWVNASGEWIAKPPSVDVVSTVGAGDSMVGGLIYGLLMRESSEHTLRLATAVAALAVSQSNVGITDRPQLAAMMARVDLQPFN
modifications: not checked
Kd [1]: 1.6 nM
Kd [2]: 2 nM
stoichiometry N (FruK homodimer per Cra homodimer) [3]: 1
stoichiometry N [4]: 2

B2: His-tagged FruK (pET3a) for biolayer interferometry, P0AEW9 1-312 (enzyme)
chain: MSRRVATITLNPAYDLVGFCPEIERGEVNLVKTTGLHAAGKGINVAKVLKDLGIDVTVGGFLGKDNQDGFQQLFSELGIANRFQVVQGRTRINVKLTEKDGEVTDFNFSGFEVTPADWERFVTDSLSWLGQFDMVCVSGSLPSGVSPEAFTDWMTRLRSQCPCIIFDSSREALVAGLKAAPWLVKPNRRELEIWAGRKLPEMKDVIEAAHALREQGIAHVVISLGAEGALWVNASGEWIAKPPSVDVVSTVGAGDSMVGGLIYGLLMRESSEHTLRLATAVAALAVSQSNVGITDRPQLAAMMARVDLQPFN
modifications: not checked
Kd [2]: 2.1 nM

B3: catabolite repressor activator protein (WT Cra), untagged (natural protein, E. coli, UniProt P0ACP1 1-334, looked up)
chain: MKLDEIARLAGVSRTTASYVINGKAKQYRVSDKTVEKVMAVVREHNYHPNAVAAGLRAGRTRSIGLVIPDLENTSYTRIANYLERQARQRGYQLLIACSEDQPDNEMRCIEHLLQRQVDAIIVSTSLPPEHPFYQRWANDPFPIVALDRALDREHFTSVVGADQDDAEMLAEELRKFPAETVLYLGALPELSVSFLREQGFRTAWKDDPREVHFLYANSYEREAAAQLFEKWLETHPMPQALFTTSFALLQGVMDVTLRRDGKLPSDLAIATFGDNELLDFLQCPVLAVAQRHRDVAERVLEIVLASLDEPRKPKPGLTRIKRNLYRRGVLSRS
notes: also called FruR; source: E. coli 3.300, constitutively over-expressed from pHG165a, in lysate; E. coli BLIM, constitutively expressed, purified (ammonium sulfate precipitation, phosphocellulose)
stoichiometry N [5]: 2

B4: fruBproximal (dsDNA)
DNA 1: ATGCATGTTGTGTGGTTCTTGAAACGTTTCAGCTCACACAGGTCC
DNA 2: GGACCTGTGTGAGCTGAAACGTTTCAAGAACCACACAACATGCAT
modifications: 5' biotin
binding result [6]: binds
